Measured values taken from patent publication US20220242969A1 (FREDAX, published 2022).

Target: T1, prostate specific antigen (PSA) (human, UniProt P07288 25-261, limits assumed)
T1 construct: The antigen of the SPR study is only called 'PSA' (169 ug/ml, provided by Diaprost AB, Mw 30 000 Da); also called kallikrein III
Assay: SPR (Biacore 3000), PSA amine-coupled on CM4 chip, antibody in solution
Protocol: All binding experiments were performed on CM4 chip on a Biacore™ 3000 instrument. The chip and all the reagents needed for activation, immobilization, deactivation, binding and regeneration were purchased from GE Healthcare and used according to the guidelines from the manufacturer.
The dissociation phase data was fitted and the dissociation rate constants (koff) were estimated (see Table 1). [0279] (e) Estimation of the association rate constant (kₒₙ)
In order to estimate the association rate constants, the dissociation rate constants (Table 1) were used in the fitted equations. [0281] (f) Estimation of the dissociation constant (kD)

T1 sequence (P07288 25-261 limits assumed): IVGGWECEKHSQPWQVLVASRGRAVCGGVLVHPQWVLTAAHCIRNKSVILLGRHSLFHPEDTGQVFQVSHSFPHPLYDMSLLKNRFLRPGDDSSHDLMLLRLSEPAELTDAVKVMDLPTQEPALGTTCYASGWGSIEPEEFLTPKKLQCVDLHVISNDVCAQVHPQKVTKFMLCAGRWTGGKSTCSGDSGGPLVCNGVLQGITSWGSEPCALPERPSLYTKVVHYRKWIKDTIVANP

Row | Binder | Kd | koff | kon
1 | h5A10-DFO (antibody, human IgG1, kappa, V domains shown, DFO (deferoxamine) chelator conjugated to the antibody; sites and chain not stated, Humanised 5A10 IgG1/kappa conjugated with the chelator DFO; also called h5A10-DFO (141203)) VH: QVTLKESGPALVKPTQTLTLTCTFSGFSLSTTGMGVSWIRQPPGKALEWLAHIYWDDDKRYSTSLKTRLTISEDSSKNQVVLTMTNMDPVDTATYYCARKGYYGYFDYWGQGTLVTVSS VL: DIQMTQSPSSLSASVGDRVTVTCRASQNVNTDVAWYQQKPGKAPKALIFSTSYLQSGVPSRFSGSGSGTDFTLTISSLQPEDFATYYCQQYSNYPLTFGQGTKVEIKR | 0.05 nM | 8.3e-06 s⁻¹ | 170000 M⁻¹ s⁻¹
2 | humanised monoclonal antibody 5A10 (h5A10) (antibody, human IgG1, kappa, V domains shown, also called hu5A10 (141203); h5A10 (141203)) VH: QVTLKESGPALVKPTQTLTLTCTFSGFSLSTTGMGVSWIRQPPGKALEWLAHIYWDDDKRYSTSLKTRLTISEDSSKNQVVLTMTNMDPVDTATYYCARKGYYGYFDYWGQGTLVTVSS VL: DIQMTQSPSSLSASVGDRVTVTCRASQNVNTDVAWYQQKPGKAPKALIFSTSYLQSGVPSRFSGSGSGTDFTLTISSLQPEDFATYYCQQYSNYPLTFGQGTKVEIKR | 0.01 nM | 4.8e-06 s⁻¹ | 620000 M⁻¹ s⁻¹
3 | h5A10-DOTA (antibody, human IgG1, kappa, V domains shown, DOTA chelator conjugated to the antibody; sites and chain not stated, Humanised 5A10 IgG1/kappa conjugated with the chelator DOTA; also called h5A10-DOTA (141211)) VH: QVTLKESGPALVKPTQTLTLTCTFSGFSLSTTGMGVSWIRQPPGKALEWLAHIYWDDDKRYSTSLKTRLTISEDSSKNQVVLTMTNMDPVDTATYYCARKGYYGYFDYWGQGTLVTVSS VL: DIQMTQSPSSLSASVGDRVTVTCRASQNVNTDVAWYQQKPGKAPKALIFSTSYLQSGVPSRFSGSGSGTDFTLTISSLQPEDFATYYCQQYSNYPLTFGQGTKVEIKR | 0.02 nM | 1.17e-05 s⁻¹ | 540000 M⁻¹ s⁻¹
4 | h5A10-DTPA (antibody, human IgG1, kappa, V domains shown, DTPA chelator conjugated to the antibody; sites and chain not stated, Humanised 5A10 IgG1/kappa conjugated with the chelator DTPA; also called h5A10-DTPA (141203); DTPA-h5A10) VH: QVTLKESGPALVKPTQTLTLTCTFSGFSLSTTGMGVSWIRQPPGKALEWLAHIYWDDDKRYSTSLKTRLTISEDSSKNQVVLTMTNMDPVDTATYYCARKGYYGYFDYWGQGTLVTVSS VL: DIQMTQSPSSLSASVGDRVTVTCRASQNVNTDVAWYQQKPGKAPKALIFSTSYLQSGVPSRFSGSGSGTDFTLTISSLQPEDFATYYCQQYSNYPLTFGQGTKVEIKR | 0.01 nM | 4.8e-06 s⁻¹ | 390000 M⁻¹ s⁻¹
